One may read the stoichiometry N as the number of molecules, sites or subunits per partner or assembly.

Data set [1] addresses peroxide response regulator (PerR) from Group A streptococcus, recombinant 6xHis-tagged, wild type (Streptococcus pyogenes (Group A streptococcus) serotype M1 strain A20). In words: SEC; Superdex 75 size exclusion chromatography of purified PerR against molecular weight markers; apparent molecular weight about 42 kDa for the wild type. (SEC sorts molecules by how far they enter the pores of the column.)

Data set [2] has as its target T1, PerR WT (Streptococcus pyogenes (GAS) serotype …, UniProt Q9A1M6 1-155).
T1 sequence: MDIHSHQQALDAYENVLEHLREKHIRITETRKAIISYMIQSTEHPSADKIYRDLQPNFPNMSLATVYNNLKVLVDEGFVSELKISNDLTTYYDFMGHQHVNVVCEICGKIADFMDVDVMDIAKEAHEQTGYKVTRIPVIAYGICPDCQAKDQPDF
Briefly: EMSA; EMSA: 20 mM Tris pH 8.0, 50 mM KCl, 5% glycerol, 50 ug/ml BSA, 15 min at 25 C; 6% native PAGE in Tris-borate, ethidium bromide. Particulars: protein: recombinant; tags: C-terminal 6xHis (pET-21b NdeI/XhoI); chain copies: 2. Background: Mobility shift assays separate free from complexed probe on a gel.

For “peroxide response regulator (PerR) from Group A streptococcus, recombinant 6xHis-tagged, wild type (natural protein)”, the stoichiometry N in data set [1] is 2.

B1: dpr segment (-185 to -135) (dsDNA)
DNA 1: ACACTTAATTAGAATCATTATCGTTTTATATCTATATTCTACAATGATTAA
DNA 2: TTAATCATTGTAGAATATAGATATAAAACGATAATGATTCTAATTAAGTGT
As to B1, the binding result in data set [2] is “binds”.

For the origin of these results see article PMC3931707, “Distinct Structural Features of the Peroxide Response Regulator from Group A Streptococcus Drive DNA Binding”.
